Positions count from the first letter of the chain named. Numbers in names are those of the source.
B1: CHT1 (endocytosis-resistant CHT1-LV/AA, called WT CHT1) (Homo sapiens; L531A/S263A/V532A) (protein)
chain: MAFHVEGLIAIIVFYLLILLVGIWAAWRTKNSGSAEERSEAIIVGGRDIGLLVGGFTMTATWVGGGYINGTAEAVYVPGYGLAWAQAPIGYSLSLILGGLFFAKPMRSKGYVTMLDPFQQIYGKRMGGLLFIPALMGEMFWAAAIFSALGATISVIIDVDMHISVIISALIATLYTLVGGLYSVAYTDVVQLFCIFVGLWISVPFALSHPAVADIGFTAVHAKYQKPWLGTVDSSEVYSWLDSFLLLMLGGIPWQAYFQRVLASSSATYAQVLSFLAAFGCLVMAIPAILIGAIGASTDWNQTAYGLPDPKTTEEADMILPIVLQYLCPVYISFFGLGAVSAAVMSSADSSILSASSMFARNIYQLSFRQNASDKEIVWVMRITVFVFGASATAMALLTKTVYGLWYLSSDLVYIVIFPQLLCVLFVKGTNTYGAVAGYVSGLFLRITGGEPYLYLQPLIFYPGYYPDDNGIYNQKFPFKTLAMVTSFLTNICISYLAKYLFESGTLPPKLDVFDAVVARHSEENMDKTIAAKNENIKLDELALVKPRQSMTLSSTFTNKEAFLDVDSSPEGSGTEDNLQ
notes: full length; transient transfection, HeLa cells
B2: CHT1 (endocytosis-resistant CHT1-LV/AA, called WT CHT1) (Homo sapiens; L531A/V532A/Y91F) (protein)
chain: B1 chain with Y91F, A263S
notes: as for B1
B3: CHT1 (endocytosis-resistant CHT1-LV/AA, called WT CHT1) (Homo sapiens; L531A/V532A/W141F) (protein)
chain: B1 chain with W141F, A263S
notes: as for B1
B4: CHT1 (endocytosis-resistant CHT1-LV/AA, called WT CHT1) (Homo sapiens; L531A/V532A/W62F) (protein)
chain: B1 chain with W62F, A263S
notes: as for B1
B5: CHT1 (endocytosis-resistant CHT1-LV/AA, called WT CHT1) (Homo sapiens; L531A/V532A/W406F) (protein)
chain: B1 chain with A263S, W406F
notes: as for B1
B6: CHT1 (endocytosis-resistant CHT1-LV/AA, called WT CHT1) (Homo sapiens; L531A/Q259A/V532A) (protein)
chain: B1 chain with Q259A, A263S
notes: as for B1
B7: CHT1 (endocytosis-resistant CHT1-LV/AA, called WT CHT1) (Homo sapiens; L531A/V532A) (protein)
chain: B1 chain with A263S
notes: as for B1

Each molecule was assayed against T1, sfCHT (Salimicrobium flavidum, UniProt A0A1N7IZC0) (assay: inhibition of [3H]-choline uptake into proteoliposomes). Settings: 1 μM HC-3, 1 μM choline, 137 mM NaCl, pH 7.4, room temperature.
T1 construct: gene SAMN05421687_10333; full length, C-terminal 3C-His10 tag (cut by 3C for cryo-EM), E. coli BL21; monomer in DDM or E. coli polar lipid proteoliposomes; residues 22-69 and 81-543 built
T1 sequence (A0A1N7IZC0 entry or part of it): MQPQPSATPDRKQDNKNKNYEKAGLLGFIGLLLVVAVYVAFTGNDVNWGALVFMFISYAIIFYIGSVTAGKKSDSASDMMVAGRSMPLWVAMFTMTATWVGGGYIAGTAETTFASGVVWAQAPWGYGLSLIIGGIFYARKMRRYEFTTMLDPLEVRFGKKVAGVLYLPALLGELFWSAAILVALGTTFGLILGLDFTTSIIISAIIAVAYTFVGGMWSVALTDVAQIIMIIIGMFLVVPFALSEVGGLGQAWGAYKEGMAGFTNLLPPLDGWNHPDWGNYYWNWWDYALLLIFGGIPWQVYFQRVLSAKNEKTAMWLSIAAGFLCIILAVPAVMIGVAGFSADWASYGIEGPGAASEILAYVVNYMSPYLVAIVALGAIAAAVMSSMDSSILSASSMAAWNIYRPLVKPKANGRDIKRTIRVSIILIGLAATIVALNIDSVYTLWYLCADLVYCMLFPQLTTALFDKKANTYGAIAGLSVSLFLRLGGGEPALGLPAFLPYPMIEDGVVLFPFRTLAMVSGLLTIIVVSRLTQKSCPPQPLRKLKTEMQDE
Assay type: biochemical
For `C[N+]1(C)CCOC(O)(c2ccc(-c3ccc(C4(O)C[N+](C)(C)CCO4)cc3)cc2)C1` (stereo not drawn) [HC-3], the “uptake at 1 μM HC-3” value was “selectively suppressed Na^+-dependent uptake but had no effect in Na^+-free conditions”.

What follows are molecules tested on C[N+](C)(C)CCO (assay: [3H]-choline uptake, saturation kinetics in transfected HeLa cells). Settings: pH 7.4, 137 mM NaCl, room temperature, 2 min, LV/AA background, labelled compound.
Assay type: cell-based, Homo sapiens
Excerpt: [3H]-choline uptake, saturation kinetics in transfected HeLa cells on CHT1 (endocytosis-resistant CHT1-LV/AA, called WT CHT1)
With B1 the Km was 14.60 ± 2.03 µM and the Vmax was 0.000659 µmol/min/mg. In the case of B2, the Km is reported as 22.23 ± 1.91 µM and the Vmax is reported as 0.000353 µmol/min/mg. Molecule B3 has a Km of 270.81 ± 14.66 µM and a Vmax of 0.000588 µmol/min/mg. With B4 the Km was 401.72 ± 32.24 µM and the Vmax was 0.000627 µmol/min/mg. B5 showed a Km of 357.60 ± 99.13 µM and a Vmax of 0.000543 µmol/min/mg. For B6, the Km was 10.08 ± 1.50 µM and the Vmax was 0.000387 µmol/min/mg. B7 showed a Km of 12.17 ± 1.06 µM and a Vmax of 0.00118 µmol/min/mg.
